In the DeepSol protein solubility set:

Assay: soluble on expression in E. coli; label from the status in PepcDB or PDB records

Sequence	soluble on expression in E. coli
MGSDKIHHHHHHMKVLHLIDSGGLYGAERMLLALVAEQIQQGLEPMILSAGEQGIHQKPLEIEAEKLGLPLVVWRMTPGLNYPETRKICEWAEHWGVDLVHSHGYKFNILMSLFSRFSRKVPVVSTLHGYVHAPRFSRMWVYELLDRLAISRLDGVIMVGAAMKKELSTGLIRPRRLTTIRNGLAVDDTQRKATEPLPEALEEFFSTHEPVILGVGRLSKEKGFSHLVDSFREIKQSAPKAGLLIVGDGMLRKDLEDQVARLGLGSDVCLPGYCDNVPALMARSSALVISSSTEGLPITLLEAMAVRLPVVSTDVGEISFVLDEGDSGVLVKDPASELVDAIELVLNETEATHRKTEQAFHKVSGELSARSMAEQYLRVYNGVVAS	not soluble
MGSDKIHHHHHHMSNRKINPFVVTGKIEPEYFCDRESESARLIKSIANGNNSVVISPRRMGKTGLIQFCYDKEEIGRNYYTFFIDILHTSSLREFTYLLGREIYETLLPQSKKMINLFVRTLKSISGRFGFDPVSGMPTFGIELGDIEHPEYTLEEIFRYLADADRPCIVAIDEFQQIAKYPEKNIEALLRTHIQKLRNCNFIFAGSERHMMQEMFASAARPFYHSADMLELKAIEADVYIPFIVGHFEKRDRSISPDDAARVYRLFKGHTFYIQKTFNEAFADTPEGEVCTPEIIESAIDNMIASNDTIFREILSNIPEKQKTLLYAIAKEGEAERITSTGFIKRHNLISASSVQSAANKLLDKDIITEINKVYCVTDKLFAMWINTLYGTKDFWRMTSRP	not soluble
MEDPLGRLEWIKFLSAFYDKEDKAENYFNQQVSKVMATENKVSSLKKPKVAFGMVDNGKVYIPAKNSYAAKMVDMAGGDYIFKDLNNKSGYITLEDFYSKSKDADVLIYSSSKEYTPSLKSMLSAAPILKTIKPVKNKKVWCFGKDYYQAIDKTDEIIEDLASIFHPESFKGLEHHHHHH	not soluble
MTEKALDSKQTGYCLSTDHYRIRRALPSDYDSILALWEDARHTMLASDNPQWQGAYPGETEAQEDIARGEAFLLDIAGTPLGVMAVNDQMPAEYGSLPWQTEGKAYTIHRLGVHSSLLRKGYAAAMLFSAETIAREQGGTCIRIDTYSPNTAAQSLFRRLGYRQVCSFHMKQKPLPYIAFEKSLLKQLGSG	not soluble
KVLKIPREKIIEKGFTDPREYFASIEVDGGRPPKPGEFRDILVETVREVMGVEVVEAGLSKEEKIIWDRYKEMLTSSRFKMRRSTRLFKASMPPGTRYGFAQIKYRKLVQASVAVDSEGIIRAAMITGDFQLIPADADEEIVKAILGFKHSQYGEAADRVRRLVDERGIMIIGASAEEFIKPV	soluble
MHIDLRQLRHFIALHEHRSFVAAALAVNLSQSAFSRSIQALEHSAGCRLVDRAAKDLRPTKQGLIVLEHARRLVSGAHNLANEIALFNGLEAGELRFGAGPAPATWLVPRAVGRFNVRYPKARVSFQVEHWQALNRRLQAEEFEFFVADTRHFEADPQYRTSRLRPRRWHFCCREGHPLAARESVSAEELLSFPLATNISPPNIRKVLVDLSGRPDFRPAIECENGHSLLGVVLASDAIGISSGLGDLAPPGQGGLRPLRVRELPDDLDELHTRYGIVSRAGYSLSPLAEAMIDELKRVDDAT	not soluble
MSLRPEFQGLQGGLFSSVKKADVGTAVLDLMANGVDMLCWADPFFPDPVLPEHISQAVIKSMENGSASHYTMPIGNPELKEKIALKLQRYNNLTVEAQRNILITPGSDSGLLFAMMPFINNDDEVLIHSPSYPSNFLNVELLGGKPISVELKAENNFQIDIKDFENKITEKTKMVILTNPNNPTGTVLRRESLQAIADFIIAHDLILVVDQAFEDAIFDEIEFISIASLPGMWERTVSVFSFSKGMGLSGFRVGYLVADAQIVDVLFGCTVNVVGATNTSSQAGMIAALDEPSFMGEYTQIFERRRKVVFEMMNAIPGVCMVMPESGFLSWIDISKLGTSTFICDYLLQHAHVMVNSGVPYGQGGEGYIRLVHGCYKDDEKLYAVLTRIQQALMQLAKEKGICHGEGHHHHHH	soluble
VRALLAQNRLVTLCGTGGVGKTRLAIQIASASELRDGLCFVDLAPITESGIVAATAARAVGLPDQPGRSTMDSLRRFIGNRRMLMVLDNCEHLLDACAALVVELLGACPELTILATSREPIGMAGEITWRVPSMSITDEAVELFADRASRVQPGFTIANHNAAAVGEICRRLDGIPLAIEFAAARVRSMSPLEIADGLDDCFRLLAGGVRGAVQRQQTLRASIDWSHALLTETEQILFRRLAPFVGGFDLAAVRAVAAGSDLDPFSVLDQLTLLVDKSLVVADDCQGRTRYRLLETVRRYALEKLGDSGEADVHARHRDYYTALAASLNTPADNDHQRLVARAETEIDNLRAAFAWSRENGHITEALQLASSLQPIWFGRAHLREGLSWFNSILEDQRFHRLAVSTAVRARALADKAMLSTWLATSPVGATDIIAPAQQALAMAREVGDPAALVRALTACGCSSGYNAEAAAPYFAEATDLARAIDDKWTLCQILYWRGVGTCISGDPNALRAAAEECRDLADTIGDRFVSRHCSLWLSLAQMWAGNLTEALELSREITAEAEASNDVPTKVLGLYTQAQVLAYCGASAAHAIAGACIAAATELGGVYQGIGYAAMTYAALAAGDVTAALEASDAARPILRAQPDQVTMHQVLMAQLALAGGDAIAARQFANDAVDATNGWHRMVALTIRARVATARGEPELARDDAHAALACGAELHIYQGMPDAMELLAGLAGEVGSHSEGVRLLGAAAALRQQTRQVRFKIWDAGYQASVTALREAMGDEDFDRAWAEGAALSTDEAIAYAQRGRGERKRPARGWGSLTPTERDVVRLVSEGLSNKDIAKRLFVSPRTVQTHLTHVYAKLGLPSRVQLVDEAARRGSPS	not soluble
MGSDKIHHHHHHMTLDNHHCVQLVPLFEKLAEQDLTKVEKIVEHKKIKKGEIIISPDKEPLLVIVAQGALKISQLSQSGKEQLLRIIEAGDYEGEGALLGVTNGQLYGQAMIDSTICFLRQSDFETLLTTYPSLSLQLLKLNAKKYLAAEHQAGFLALDDVEARLAHYFLNLSATSDSIYFEIPMKLKELANYIGTSPETISRKIKVFEENKIISRQGRMIKLLDKEKLEDDFA	not soluble
MDAALRRLQTFLSTIPQCDHTKYEGHYQQVFYIIFSLLGYYVDVEVRTSRGRVDVVLRTEATLYVMELKLDKNATVAMEQINLKNYPERFALCGLPVVKVAVNFDSESGTLGDWMIEK	not soluble
MGPAQIWRLKFSNDKLTWEQECTFERSQYYDSIICACVYRFYHGAPPVVLFGTYSGRILQYELPPPTKFVRKSMKDVPKCGKPINLLINHGIYFIRQTGFNEIASITPFGLYILRENFHASKRLGKFGQFWLNRLQNRLLVKNPGSIDDFSAAEIRRLSIDSAQEQMRPRIGSTVSQLTFRYSDDDTLLLEKGGEKRRQTLGARDFQVSPRFYSRKIGKKIRFFLKFFREKLAGIENFRQIGKLAKMKISGKPANCQNFLPISNRGKLRKNFFFSENNDKF	not soluble
GPGSMGVDLTGISKKSRVIRHHTYSTNPYIKLLIKLYKFLAKRTSSGFNKVVYQRLIKSRSNRAPISLSRIAVVMKRKAVFTAKSKAAPIAVVVGDVLDDVRMARIPAMRVCALRFSKSARQSIVAAGGECLTFDQLAMIAPTGKNTYLLRGRKSGRESVRHFGASGVPGSHSKPYATNRGKETKRGRRTGRSYKRKAFRHV	soluble
GPGSMRLLSFSNVPLFLALFPPLPLLSCASVWHTRRHSFSEIFFVGSFIAAPFRCIVSPRVALYRARLRFLAPAACTRALPFAYTGQQGERQIKMITATADAGSAAKAAAAPPARMFDCLDAASKERVTMLLSHYQVLLPVEQASFMQELERYNQEQQTTALERNKAGEVWIRYTNPRLQAVQARDPAYVQRSISHTAASRGSKGDAAPEEATAPCSLEDLVHIRGMFGEPEGVPIRVGKMSLYEKLQQNMRNRRSTACGSLANTTVSSIPTAADAGHGAARVSVPFGPFAEAPAKPAEGKREVGDNASPKTSAQSESGERAVALVCADTFPSHTSSVRPSAPYRNNAYQAVRLAMSSPGYTATTQPTSVAELQTPLDGVKPVLNTTAFPITEEELRDWFDELDVHGRGVLSVEEFQRYMQSLERDLGVPTEYATLELDGAQLAKDGWLSFEAFSYLVLRFVRA	not soluble
MGSDKIHHHHHHMSGGSSMTDQGWAMKGELVLSCNCTVFCPCVLSLGNHAPTEGYCQTWAGFRIDAGHFGEVDLSGLNLGLIMEIPGYMSRGNWTAGLFIDKRASIYAVKALTKIFTGKAGGTTSLLSILVGKFLPITYETRDKMRIFQIPKIIDGAVTPIAGKDREKDTVITNSEYWIAPEIIVARSDKSKMRAFGRNWNFAGRSAEICKLDWRGP	not soluble
HGSSHHHHHHSSENLYFQGHMWNSRKVGVLGGGQLGRMLVESANRLNIQVNVLDADNSPAKQISAHDGHVTGSFKEREAVRQLAKTCDVVTAEIEHVDTYALEEVASEVKIEPSWQAIRTIQNKFNQKEHLRKYGIPMAEHRELVENTPAELAKVGEQLGYPLMLKSKTMAYDGRGNFRVNSQDDIPEALEALKDRPLYAEKWAYFKMELAVIVVKTKDEVLSYPTVETVQEDSICKLVYAPARNVSDAINQKAQELARKAVAAFDGKGVFGVEMFLLEDDSIMLCEIASRIHNSGHYTIEGCALSQFDAHLRAILDLPIPAQSLEIRQPSIMLNIIGGAAPDTHLQAAECALSIPNASIHLYSKGAAKPGRKMGHITVTAPTMHEAETHIQPLIDVVDRIRA	soluble
MGSDKIHHHHHHMSIEAKFKKLGTDNAPGQEVRQSAAGLEALIRGAPIEGRPVDFSHGDVDAHEPTPGAFDLFSAGVQSGGVQAYTEYRGDLGIRDLLAPRLAAFTGAPVDARDGLIITPGTQGALFLAVAATVARGDKVAIVQPDYFANRKLVEFFEGEMVPVQLDYVSADETRAGLDLTGLEEAFKAGARVFLFSNPNNPAGVVYSAEEIGQIAALAARYGATVIADQLYSRLRYAGASYTHLRAEAAVDAENVVTIMGPSKTESLSGYRLGVAFGSRAIIARMEKLQAIVSLRAAGYSQAVLRGWFDEAPGWMEDRIARHQAIRDELLHVLRGCEGVFARTPQAGSYLFPRLPKLAVAPAEFVKILRLQAGVVVTPGTEFSPHTADSVRLNFSQDHEAAVAAARRIVTLVERYRA	not soluble
MKLDAKSTIETGKAILGIELGSTRIKAVLIDQENKPIAQGSHTWENQLVNGLWTYSIDAIWSGLQDCYADLRSNVKKLYDTEIETLAAIGVSAMMHGYMPFNEKEEILVPFRTWRNTNTGRAAAELSELFVYNIPLRWSISHLYQAILDNEAHVKDIKFLTTLAGYVHWQITGEKVLGIGDASGMLPIDPTTNNYSAEMVAKFNNLIASKEYSWKLEDILPKVLSAGENAGVLTPEGCKKLDASGHLKAGIPVCPPEGDAGTGMVATNAVKQRTGNVSAGTSSFSMIVLEKELSKPYEMIDMVTTPDGSLVAMVHCNNCTSDLNAWVNLFKEYQELLGIPVDMDELYGKLYNIALTGDTDCGGLLSYNYISGEPVTGLAEGRPLFVRSANDKFNLANFMRAHLYASVGVLKIGNDILFNEEKIKVDRITGHGGLFRTKGVGQRVLAAAINSPISVMETAGEGGAWGIALLGSYLVNNKKGQSLADFLDESVFVSDAGVEVSPTPEDVAGFNTYIESYKAGLPIEEAAVKFKLEHHHHHH	soluble
MGSDKIHHHHHHMGVKTAAIKPQINRFFERIINMIIDRERVKNTFAEYTSGYNATDPKIKLKIDHTYRVAELCELIARNLKLDEYETDVAWLTGMLHDVGRFEQIKCYNTFNDALSVDHANFGADLLFKEGLIDTYVDGFHDDKYGTIVENAIRNHSAFRIDERLDEYTVMFCNILRDADKVDIFRVNVDTPAEDIYNVTTEELKNSQVSPEVMAAFDERHAVLRSCKKTVVDHVAGHIALTFELVYPISLQIANERGYLDKMMAFESDNEVTGKQFEEIRAKLNEYVASVKPL	not soluble
